Measured values as given in patent US20210371505A1 (Regeneron, published 2021).

Key:
Test in all cases: cell-based or functional assay
[1] = target: Hemagglutinin of influenza virus A/Shanghai/01/2013-PR8 (H7N9) (Influenza A virus …)
[2] = target: Hemagglutinin of influenza virus A/Philippines/01/1982 (H3N2) (Influenza A virus A/Philippines/01/1982 …)
[3] = target: T1, Hemagglutinin of influenza virus A/Aichi/02/1968-PR8-X31 (H3N2) (Influenza A virus …, UniProt P03437 17-566)
[4] = target: T1, Hemagglutinin of influenza virus …; remark: listed apart in the source

B1: H1H14611N2 (antibody, V domains shown)
VH: EVQLVESGGGLVKPGGSLRLSCAASGFTFSGFSMNWVRQVPGKGLEWVSSISTSGNYMYYADSVKGRFTISRDNAKKSFSLQMNSLRAEDSAIYYCARGGGYNWNLFDYWGQGSLVTVSS
VL: EIVLTQSPGTLSLSPGERATLSCRASQSLNSNYLAWYQQKPGQAPRLLIYGASSRATGIPDRFSGSGSGTDFTLTITRLESEDFAVYYCQQYGNSPLTFGGGTKVEIK
- IC50 of neutralization, cell viability microneutralization assay on MDCK cells [1]: 405 nM
- IC50 of neutralization, cell viability microneutralization assay on MDCK cells [2]: 68.4 nM
- IC50 of neutralization, cell viability microneutralization assay on MDCK cells [3]: 7.83 nM
- EC50, complement-dependent cytotoxicity of virus-infected MDCK cells [4]: 140 nM
